Measurements as given in the supplement of paper PMC5998384.

Key:
HeLa Kyoto [1] = experiment: solubility in G1/S (NP-40 vs SDS abundance) (log2 ratio); higher = more soluble; details: cell cycle stage: G1/S
HeLa Kyoto [2] = experiment: melting temperature (median over replicates), in situ; higher = more thermally stable
HeLa Kyoto [3] = experiment: solubility change mitosis vs G1/S (difference of NP-40 vs SDS log2 ratios) (log2 ratio difference); higher = more soluble in mitosis
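For melting temperature (median over replicates), in situ in this document: HeLa Kyoto cells synchronized by double thymidine or nocodazole block, proteins quantified by TMT10plex mass spectrometry, three independent biological replicates.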
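For solubility change mitosis vs G1/S (difference of NP-40 vs SDS log2 ratios) in this document: synchronized HeLa Kyoto cells (double thymidine block for G1/S, nocodazole release for mitosis), protein amounts in NP-40 versus SDS lysates quantified by mass spectrometry, three biological replicates.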
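For solubility in G1/S (NP-40 vs SDS abundance) in this document: HeLa Kyoto cells arrested at G1/S by double thymidine block, proteins quantified by TMT10plex mass spectrometry in mild NP-40 versus SDS extracts, three biological replicates.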

Sequence	solubility in G1/S (log2) (HeLa Kyoto [1])	melting temperature (HeLa Kyoto [2]; cell cycle stage: G1/S) [°C]	melting temperature (HeLa Kyoto [2]; cell cycle stage: mitosis) [°C]	solubility change mitosis (log2) (HeLa Kyoto [3])
MGKEKTHINIVVIGHVDSGKSTTTGHLIYKCGGIDKRTIEKFEKEAAEMGKGSFKYAWVLDKLKAERERGITIDISLWKFETSKYYVTIIDAPGHRDFIKNMITGTSQADCAVLIVAAGVGEFEAGISKNGQTREHALLAYTLGVKQLIVGVNKMDSTEPPYSQKRYEEIVKEVSTYIKKIGYNPDTVAFVPISGWNGDNMLEPSANMPWFKGWKVTRKDGNASGTTLLEALDCILPPTRPTDKPLRLPLQDVYKIGGIGTVPVGRVETGVLKPGMVVTFAPVNVTTEVKSVEMHHEALSEALPGDNVGFKVKNVSVKDVRRGNVAGDSKNDPPMEAAGFTAQVIILNHPGQISAGYAPVLDCHMAHIACKFAELKEKIDRRSGKKLEDGPKFLKSGDAAIVDMVPGKPMCVESFSDYPPLGRFAVRDMRQTVAVGVIKAVDKKAAGAGKVTKSAQKAQKAK [EEF1A1P5]	0.301	52.4	52.4	-0.0239
MGLGPVFLLLAGIFPFAPPGAAAEPHSLRYNLTVLSWDGSVQSGFLTEVHLDGQPFLRCDRQKCRAKPQGQWAEDVLGNKTWDRETRDLTGNGKDLRMTLAHIKDQKEGLHSLQEIRVCEIHEDNSTRSSQHFYYDGELFLSQNLETKEWTMPQSSRAQTLAMNVRNFLKEDAMKTKTHYHAMHADCLQELRRYLKSGVVLRRTVPPMVNVTRSEASEGNITVTCRASGFYPWNITLSWRQDGVSLSHDTQQWGDVLPDGNGTYQTWVATRICQGEEQRFTCYMEHSGNHSTHPVPSGKVLVLQSHWQTFHVSAVAAAAIFVIIIFYVRCCKKKTSAAEGPELVSLQVLDQHPVGTSDHRDATQLGFQPLMSDLGSTGSTEGA [MICA]	-0.128	55.9	57.2	-0.108
MGLHLRPYRVGLLPDGLLFLLLLLMLLADPALPAGRHPPVVLVPGDLGNQLEAKLDKPTVVHYLCSKKTESYFTIWLNLELLLPVIIDCWIDNIRLVYNKTSRATQFPDGVDVRVPGFGKTFSLEFLDPSKSSVGSYFHTMVESLVGWGYTRGEDVRGAPYDWRRAPNENGPYFLALREMIEEMYQLYGGPVVLVAHSMGNMYTLYFLQRQPQAWKDKYIRAFVSLGAPWGGVAKTLRVLASGDNNRIPVIGPLKIREQQRSAVSTSWLLPYNYTWSPEKVFVQTPTINYTLRDYRKFFQDIGFEDGWLMRQDTEGLVEATMPPGVQLHCLYGTGVPTPDSFYYESFPDRDPKICFGDGDGTVNLKSALQCQAWQSRQEHQVLLQELPGSEHIEMLANATTLAYLKRVLLGP [PLA2G15]	0.446	54.7	56.1	0.0116
MGRKVTVATCALNQWALDFEGNLQRILKSIEIAKNRGARYRLGPELEICGYGCWDHYYESDTLLHSFQVLAALVESPVTQDIICDVGMPVMHRNVRYNCRVIFLNRKILLIRPKMALANEGNYRELRWFTPWSRSRHTEEYFLPRMIQDLTKQETVPFGDAVLVTWDTCIGSEICEELWTPHSPHIDMGLDGVEIITNASGSHQVLRKANTRVDLVTMVTSKNGGIYLLANQKGCDGDRLYYDGCAMIAMNGSVFAQGSQFSLDDVEVLTATLDLEDVRSYRAEISSRNLAASRASPYPRVKVDFALSCHEDLLAPISEPIEWKYHSPEEEISLGPACWLWDFLRRSQQAGFLLPLSGGVDSAATACLIYSMCCQVCEAVRSGNEEVLADVRTIVNQISYTPQDPRDLCGRILTTCYMASKNSSQETCTRARELAQQIGSHHISLNIDPAVKAVMGIFSLVTGKSPLFAAHGGSSRENLALQNVQARIRMVLAYLFAQLSLWSRGVHGGLLVLGSANVDESLLGYLTKYDCSSADINPIGGISKTDLRAFVQFCIQRFQLPALQSILLAPATAELEPLADGQVSQTDEEDMGMTYAELSVYGKLRKVAKMGPYSMFCKLLGMWRHICTPRQVADKVKRFFSKYSMNRHKMTTLTPAYHAENYSPEDNRFDLRPFLYNTSWPWQFRCIENQVLQLERAEPQSLDGVD [NADSYN1]	0.157		56.3	-0.234
MKDPSRSSTSPSIINEDVIINGHSHEDDNPFAEYMWMENEEEFNRQIEEELWEEEFIERCFQEMLEEEEEHEWFIPARDLPQTMDQIQDQFNDLVISDGSSLEDLVVKSNLNPNAKEFVPGVKYGNI [PAIP2]	0.197	50.5		-0.113
MKDRLEQLKAKQLTQDDDTDAVEIAIDNTAFMDEFFSEIEETRLNIDKISEHVEEAKKLYSIILSAPIPEPKTKDDLEQLTTEIKKRANNVRNKLKSMEKHIEEDEVRSSADLRIRKSQHSVLSRKFVEVMTKYNEAQVDFRERSKGRIQRQLEITGKKTTDEELEEMLESGNPAIFTSGIIDSQISKQALSEIEGRHKDIVRLESSIKELHDMFMDIAMLVENQGEMLDNIELNVMHTVDHVEKARDETKKAVKYQSQARKKLIIIIVLVVVLLGILALIIGLSVGLN [STX3]	0.157	53.9		0.0981
MKGLGDSRPRHLSDSLDPPHEPLFAGTDRNPYLLSPTEAFAREARFPGQNTLPGDGLFPLNNQLPPPSSTFPRIHYNSHFEVPEESPFPSHAQATKINRLPANLLDQFEKQLPIHRDGFSTLQFPRGEAKARGESPGRIRHLVHSVQRLFFTKAPSLEGTAGKVGGNGSKKGGMEDGKGRRAKSKERAKAGEPKRRSRSNISGWWSSDDNLDGEAGAFRSSGPASGLMTLGRQAERSQPRYFMHAYNTISGHMLKTTKNNTTELTAPPPPPAPPATCPSLGVGTDTNYVKRGSWSTLTLSHAHEVCQKTSATLDKSLLKSKSCHQGLAYHYLQVPGGGGEWSTTLLSPRETDAAAEGPIPCRRMRSGSYIKAMGDEDSDESGGSPKPSPKTAARRQSYLRATQQSLGEQSNPRRSLDRLDSVDMLLPSKCPSWEEDYTPVSDSLNDSSCISQIFGQASLIPQLFGHEQQVREAELSDQYEAACESACSEAESTAAETLDLPLPSYFRSRSHSYLRAIQAGCSQEEDSVSLQSLSPPPSTGSLSNSRTLPSSSCLVAYKKTPPPVPPRTTSKPFISVTVQSSTESAQDTYLDSQDHKSEVTSQSGLSNSSDSLDSSTRPPSVTRGGVAPAPEAPEPPPKHAALKSEQGTLTSSESHPEAAPKRKLSSIGIQVDCIQPVPKEEPSPATKFQSIGVQVEDDWRSSVPSHSMSSRRDTDSDTQDANDSSCKSSERSLPDCTPHPNSISIDAGPRQAPKIAQIKRNLSYGDNSDPALEASSLPPPDPWLETSSSSPAEPAQPGACRRDGYWFLKLLQAETERLEGWCCQMDKETKENNLSEEVLGKVLSAVGSAQLLMSQKFQQFRGLCEQNLNPDANPRPTAQDLAGFWDLLQLSIEDISMKFDELYHLKANSWQLVETPEKRKEEKKPPPPVPKKPAKSKPAVSRDKASDASDKQRQEARKRLLAAKRAASVRQNSATESADSIEIYVPEAQTRL [DLGAP4]	0.269		55.5	-0.0211
MKIGSGFLSGGGGTGSSGGSGSGGGGSGGGGGGGSSGRRAEMEPTFPQGMVMFNHRLPPVTSFTRPAGSAAPPPQCVLSSSTSAAPAAEPPPPPAPDMTFKKEPAASAAAFPSQRTSWGFLQSLVSIKQEKPADPEEQQSHHHHHHHHYGGLFAGAEERSPGLGGGEGGSHGVIQDLSILHQHVQQQPAQHHRDVLLSSSSRTDDHHGTEEPKQDTNVKKAKRPKPESQGIKAKRKPSASSKPSLVGDGEGAILSPSQKPHICDHCSAAFRSSYHLRRHVLIHTGERPFQCSQCSMGFIQKYLLQRHEKIHSREKPFGCDQCSMKFIQKYHMERHKRTHSGEKPYKCDTCQQYFSRTDRLLKHRRTCGEVIVKGATSAEPGSSNHTNMGNLAVLSQGNTSSSRRKTKSKSIAIENKEQKTGKTNESQISNNINMQSYSVEMPTVSSSGGIIGTGIDELQKRVPKLIFKKGSRKNTDKNYLNFVSPLPDIVGQKSLSGKPSGSLGIVSNNSVETIGLLQSTSGKQGQISSNYDDAMQFSKKRRYLPTASSNSAFSINVGHMVSQQSVIQSAGVSVLDNEAPLSLIDSSALNAEIKSCHDKSGIPDEVLQSILDQYSNKSESQKEDPFNIAEPRVDLHTSGEHSELVQEENLSPGTQTPSNDKASMLQEYSKYLQQAFEKSTNASFTLGHGFQFVSLSSPLHNHTLFPEKQIYTTSPLECGFGQSVTSVLPSSLPKPPFGMLFGSQPGLYLSALDATHQQLTPSQELDDLIDSQKNLETSSAFQSSSQKLTSQKEQKNLESSTGFQIPSQELASQIDPQKDIEPRTTYQIENFAQAFGSQFKSGSRVPMTFITNSNGEVDHRVRTSVSDFSGYTNMMSDVSEPCSTRVKTPTSQSYR [ZNF281]	-0.357	45.1	47.4	0.0949
MKVLLLKDAKEDDCGQDPYIRELGLYGLEATLIPVLSFEFLSLPSFSEKLSHPEDYGGLIFTSPRAVEAAELCLEQNNKTEVWERSLKEKWNAKSVYVVGNATASLVSKIGLDTEGETCGNAEKLAEYICSRESSALPLLFPCGNLKREILPKALKDKGIAMESITVYQTVAHPGIQGNLNSYYSQQGVPASITFFSPSGLTYSLKHIQELSGDNIDQIKFAAIGPTTARALAAQGLPVSCTAESPTPQALATGIRKALQPHGCC [UROS]	0.234	51.5	52.4	0.14
MLGWIKRLIRMVFQQVGVSMQSVLWSRKPYGSSRSIVRKIGTNLSLIQCPRVQFQINSHATEWSPSHPGEDAVASFADVGWVAKEEGECSARLRTEVRSRPPLQDDLLFFEKAPSRQISLPDLSQEEPQLKTPALANEEALQKICALENELAALRAQIAKIVTQQEQQNLTAGDLDSTTFGTIPPHPPPPPPPLPPPALGLHQSTSAVDLIKERREKRANAGKTLVKNNPKKPEMPNMLEILKEMNSVKLRSVKRSEQDVKPKPVDATDPAALIAEALKKKFAYRYRSDSQDEVEKGIPKSESEATSERVLFGPHMLKPTGKMKALIENVSDS [MTFR1]	0.556	49.3	52.1	0.0301
MLQGHSSVFQALLGTFFTWGMTAAGAALVFVFSSGQRRILDGSLGFAAGVMLAASYWSLLAPAVEMATSSGGFGAFAFFPVAVGFTLGAAFVYLADLLMPHLGAAEDPQTTLALNFGSTLMKKKSDPEGPALLFPESELSIRIGRAGLLSDKSENGEAYQRKKAAATGLPEGPAVPVPSRGNLAQPGGSSWRRIALLILAITIHNVPEGLAVGVGFGAIEKTASATFESARNLAIGIGIQNFPEGLAVSLPLRGAGFSTWRAFWYGQLSGMVEPLAGVFGAFAVVLAEPILPYALAFAAGAMVYVVMDDIIPEAQISGNGKLASWASILGFVVMMSLDVGLG [SLC39A11]	0.00506	56	51.9	-0.134
MLRREARLRREYLYRKAREEAQRSAQERKERLRRALEENRLIPTELRREALALQGSLEFDDAGGEGVTSHVDDEYRWAGVEDPKVMITTSRDPSSRLKMFAKELKLVFPGAQRMNRGRHEVGALVRACKANGVTDLLVVHEHRGTPVGLIVSHLPFGPTAYFTLCNVVMRHDIPDLGTMSEAKPHLITHGFSSRLGKRVSDILRYLFPVPKDDSHRVITFANQDDYISFRHHVYKKTDHRNVELTEVGPRFELKLYMIRLGTLEQEATADVEWRWHPYTNTARKRVFLSTE [IMP4]	-1.9		51.4	0.914
MMATPNQTACNAESPVALEEAKTSGAPGSPQTPPERHDSGGSLPLTPRMESHSEDEDLAGAVGGLGWNSRSPRTQSPGGCSAEAVLARKKHRRRPSKRKRHWRPYLELSWAEKQQRDERQSQRASRVREEMFAKGQPVAPYNTTQFLMNDRDPEEPNLDVPHGISHPGSSGESEAGDSDGRGRAHGEFQRKDFSETYERFHTESLQGRSKQELVRDYLELEKRLSQAEEETRRLQQLQACTGQQSCRQVEELAAEVQRLRTENQRLRQENQMWNREGCRCDEEPGT [HEXIM2]	0.492	54.6	53.4	0.139
